A word on the stoichiometry N: it is a count of units in the complex or per binding partner.

Like-named read-outs stand apart in the source and are kept apart here.

Experiment [1] deals with Streptococcus pyogenes enolase, wild type (WT-Sen) (Streptococcus pyogenes (Group A, isolate AP53)). In words: AUC.
Experiment [2] shares this target. Briefly: cryo-EM structure.
For experiment [3] the target is unchanged. Briefly: AUC. This is another data set of the same source.
In experiment [4] the target is DOPG/Sen (the Sen variants of Figure 5A-D on DOPG vesicles). In words: flow cytometry of phospholipid vesicles. In general terms: Flow cytometry measures light scatter and fluorescence of single cells or particles in a stream.

Chain of Streptococcus pyogenes enolase, wild type (WT-Sen) (enzyme) (A2RFE3 whole entry): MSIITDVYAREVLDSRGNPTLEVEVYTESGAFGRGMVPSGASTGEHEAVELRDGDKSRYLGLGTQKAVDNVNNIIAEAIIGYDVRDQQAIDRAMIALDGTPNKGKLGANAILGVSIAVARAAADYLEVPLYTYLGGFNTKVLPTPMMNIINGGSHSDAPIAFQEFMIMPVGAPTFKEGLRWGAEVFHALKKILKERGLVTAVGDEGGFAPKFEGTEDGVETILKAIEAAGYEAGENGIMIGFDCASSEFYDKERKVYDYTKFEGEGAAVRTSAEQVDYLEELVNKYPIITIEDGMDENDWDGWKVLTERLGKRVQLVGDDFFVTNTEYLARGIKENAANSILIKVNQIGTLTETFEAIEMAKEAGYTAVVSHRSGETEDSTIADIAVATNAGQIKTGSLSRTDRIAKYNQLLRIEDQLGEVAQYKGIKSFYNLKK

“Streptococcus pyogenes enolase, wild type (WT-Sen) (enzyme)”: the percent as octamer in experiment [1] and in experiment [3] was over 95% throughout. Moreover, the stoichiometry N in experiment [1], in experiment [2] and in experiment [3] was 8 throughout.
Substance “human plasminogen (hPg) (natural protein)” displayed a percent of vesicles in the gate that defines DOPG/Sen bound to hPg in experiment [4] of 83 to 93%.
